Results on two molecules are retold here after paper PMC4132801, “A Structural and Biochemical Model of Processive Chitin Synthesis” (The Journal of Biological Chemistry, 2014).

What all share (test): coupled fluorogenic assay: chitinase B releases 4MU from 4MU-chitooligosaccharide product
Data set [1] concerns the target T1, SmNodC (Sinorhizobium meliloti, UniProt P04341).
T1 construct: gene nodC; full-length (1-426), C-terminal mCherry-His fusion from pEXmCherry, E. coli BL21(DE3) C43 membrane fraction, not purified
T1 sequence (P04341 1-426): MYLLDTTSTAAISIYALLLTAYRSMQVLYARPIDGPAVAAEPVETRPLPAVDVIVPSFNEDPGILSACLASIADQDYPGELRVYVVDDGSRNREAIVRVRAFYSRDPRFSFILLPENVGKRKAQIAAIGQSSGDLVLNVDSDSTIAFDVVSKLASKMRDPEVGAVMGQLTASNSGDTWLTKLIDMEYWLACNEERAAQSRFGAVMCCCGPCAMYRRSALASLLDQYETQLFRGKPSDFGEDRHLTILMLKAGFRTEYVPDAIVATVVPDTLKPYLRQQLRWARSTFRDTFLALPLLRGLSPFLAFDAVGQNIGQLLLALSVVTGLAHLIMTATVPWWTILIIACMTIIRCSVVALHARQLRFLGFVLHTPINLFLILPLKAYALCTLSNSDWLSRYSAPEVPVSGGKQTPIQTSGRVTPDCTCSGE
Type of data set: biochemical. The text has this:
coupled fluorogenic assay: chitinase B releases 4MU from 4MU-chitooligosaccharide product on SmNodC | Nikkomycin Z is a competitive inhibitor with the substrate UDP-GlcNAc, with a Ki of […]

Substrate in data set [2]: CC(=O)N[C@H]1[C@H](Oc2ccc3c(C)cc(=O)oc3c2)O[C@H](CO)[C@@H](O)[C@@H]1O
Type of data set: biochemical, Sinorhizobium meliloti. Particulars: acceptor substrate, excess UDP-GlcNAc as co-substrate, 10 mM MgCl2, pH 7.5, 250 mM NaCl, 20 °C, E. coli membrane fraction.

Substrate in data set [3]: CC(=O)N[C@H]1[C@@H](OP(=O)(O)OP(=O)(O)OC[C@H]2O[C@@H](n3ccc(=O)[nH]c3=O)[C@H](O)[C@@H]2O)O[C@H](CO)[C@@H](O)[C@@H]1O
Type of data set: biochemical, Sinorhizobium meliloti. The following applies: excess 4MU-GlcNAc as co-substrate, 10 mM MgCl2, pH 7.5, 250 mM NaCl, 20 °C, E. coli membrane fraction.

As for `C[C@@H]([C@H](N)C(=O)N[C@H](C(=O)O)[C@H]1O[C@@H](n2ccc(=O)[nH]c2=O)[C@H](O)[C@@H]1O)[C@H](O)c1ccc(O)cn1` [Nikkomycin Z], in data set [1], affinity was put at a Ki of 250 nM.

B1: SmNodC (Sinorhizobium meliloti 1021) (protein)
chain: T1 sequence (P04341 1-426)
notes: full-length (1-426), C-terminal mCherry-His fusion from pEXmCherry, E. coli BL21(DE3) C43 membrane fraction, not purified
B1: the Michaelis-Menten constant (Km) (in general, the concentration of substrate that gives half-maximal velocity) in data set [2] stood at 1600 ± 400 µM; in data set [3] it was 90 ± 15 µM.
